# Experimental data taken from the DeepSol protein solubility set.
# Experiment: soluble on expression in E. coli; label from the status in PepcDB or PDB records
row,Sequence,soluble on expression in E. coli
1,MSLGKGEKFQIEFVSANPTGDLHLGHARGAAIGDSLANIMKMAGFDVSREYYINDAGNQINNLVLSAEARYFEALGLDSEFPEDGYRGADIISLGKDLAAKYGDKYVHTSEEERRSVFRVDALAFETGKLRADLEEFRVSFDEWFSETSLYEENKVLPALERLRENGYIYEQDGATWLRTTDFEDDKDRVLIKSDGSYTYFLPDIAYHLNKLERGFDVLIDIWGADHHGYIPRMRAAIEALGYSPNQLEVEIIQLVHLFEDGVQVKMSKRTGKSVTMRDLIEEVGLDATRYFFAMRSSDTHMNFDMSLAKSTSNDNPVYYVQYAHARISSILRSGKEQGLEVTKDADMSLLQTEAEYDLLKVLGEFADVVAEAATKRAPHRIVRYLNDLASSFHRFYNSNKVLDMDNLEVTKARLALIKTAQITLRNGLTLLGVSAPEKEGHHHHHH,not soluble
2,GPGSMADVADPSSELINELRALVVSGSGLVPLDERKVHTVVENMTDAFRHLESISRNPFADPSQPYYSGAMRFYKAKCLRDKRCVVAYLLWRQSQITKSWWEARDNTISNMLAPCERTFLQDYNDVMVEYMTSFAVPLDLRSFTWRPPSTQQLEVRGLVNHVFVSSITGAVINLYKGKQILLGFEEAESLIQQGVVELVE,not soluble
3,MTLLPHLATRLFGVPLAIDRPKLDVILSVLGPRVGLAGLAPPGDYTPPERNPVRGHAQIAVIPIHGTLVRRTVGLEAESGLASYTAIGEQLDAALADPGIAAILLDVDSPGGESGGVFDLADRIRVAAAIKPVWAAANDMAFSAAYALACAASRVFVSRTGGVGSIGVIAMHVDQSVKDAKDGVRYTAVFAGARKNDLNPHEPITDEAQAQLQAEVSRIYRLFVATVGSYRGLSAEAVTATEAGLFFGQDAVAAGLADAVGTFDDALAQLTASLSVPAPVASARTPSLNLQMDCSMNTQPDPAAVSVPAADAIGTTAQPPVVASPPAASVASHTDAVEIAQLCTLAGRTDLIAGFLEARATPERVRSQLLAARAEASPEIASRIDPHAQAVSADASHPASPRNPLLQAVKKRLGIQLEHHHHHH,soluble
4,DRCRYTLCCDGALKAVSACLHESESCLVPGDCCRGKSRLTLCSYGEGGNGFQCPTGYRQC,soluble
5,KAGSAAAPFTKPFAVYKNVKFYLGDISHLVNCVSFDFVVNAANENLLHGGGVARAIDILTEGQLQSLSKDYISSNGPLKVGAGVMLECEKFNVFNVVGPRTGKHEHSLLVEAYNSILFENGIPLMPLLSCGIFGVRIENSLKALFSCDINKPLQVFVYSSNEEQAVLKFLDGLD,soluble
6,MGSDKIHHHHHHMNDPESIFQRLDRLLARIEDTLPVRPQHADPAEYIALRWRKHGDTGYLQAINHPHTITLNELLNIEEQKQTLDRNTLQFVSGLPANNVLLTGARGTGKSSLIKALLNRYADRGLRMIEVDKLGLTDLPDIIEFIGQRPERFILYCDDLSFEADEPGYKALKVVLDGSISTASDNVLIYATSNRRHLIPEFMHENLATRHVDGEIHPGEATEEKISLSERFGLWLSFYPFDQEQYLEIVRHWLSQHGISRLSGPARQEALRWALARGSRNGRVARQFARDWAGQQKLAKTEPVRVDKE,not soluble
7,KESCKMFIGGLNWDTTEDNLREYFGKYGTVTDLKIMKDPATGRSRGFGFLSFEKPSSVDEVVKTQHILDGKVIDPKRAIPRDEQDKTGKIFVGGIGPDVRPKEFEEFFSQWGTIIDAQLMLDKDTGQSRGFGFVTYDSADAVDRVCQNKFIDFKDRKIEIKRAEPRH,soluble
8,MNLKPHCLALALACAGLAGPLPALAATPAAAQSAPVTVLASLPVTHALAERLLRDTEVKLQRVAPANLPASRQASFFAGRGAGGLAKAAGQADAVIDLRSIWSDDPLYPLARRSNIRIVEIDAARPVDGALPGIALRPGSDLHAYPWLNPTNLGRMADVLASDLERLAPGAAATIQANLATLKKQLLEATASNETRLAKADNLSVISLSERLGYLLAGLNLDPLDVEIQADDGWTETNIQAFAEELKSEDIALVLHHRQPPKPLADAIAASGARLIVVDTEAADPVAGLESDMKAIVEGLLAGKG,not soluble
9,SLTSEMIENIQSVKAYCWEEAMEKSGGGSGGGSGGGSGGGIENSHVKKDDIWPSGGQMTVKDLTAKYTEGGNAILENISFSISPGQRVGLLGRTGSGKSTLLSAFLRLLNTEGEIQIDGVSWDSITLEQWRKAFGVIPQKVFIFSGTFRKNLDPYEQWSDQEIWKVADEVGLRSVIEQFPGKLDFVLVDGGCVLSHGHKQLMCLARSVLSKAKILLLDEPSAHLDPVTYQIIRRTLKQAFADCTVILCEARIEAMLECDQFLVIEENKVRQYDSIQKLLNERSDFRQAISPSD,soluble
